Measured values published in ChEMBL document CHEMBL2074447, “Transport of monoglucuronosyl and bisglucuronosyl bilirubin by recombinant human and rat multidrug resistance protein 2” (Hepatology, 1999).

B1: ATP-binding cassette sub-family C member 2 (Homo sapiens) (protein)
chain: MLEKFCNSTFWNSSFLDSPEADLPLCFEQTVLVWIPLGYLWLLAPWQLLHVYKSRTKRSSTTKLYLAKQVFVGFLLILAAIELALVLTEDSGQATVPAVRYTNPSLYLGTWLLVLLIQYSRQWCVQKNSWFLSLFWILSILCGTFQFQTLIRTLLQGDNSNLAYSCLFFISYGFQILILIFSAFSENNESSNNPSSIASFLSSITYSWYDSIILKGYKRPLTLEDVWEVDEEMKTKTLVSKFETHMKRELQKARRALQRRQEKSSQQNSGARLPGLNKNQSQSQDALVLEDVEKKKKKSGTKKDVPKSWLMKALFKTFYMVLLKSFLLKLVNDIFTFVSPQLLKLLISFASDRDTYLWIGYLCAILLFTAALIQSFCLQCYFQLCFKLGVKVRTAIMASVYKKALTLSNLARKEYTVGETVNLMSVDAQKLMDVTNFMHMLWSSVLQIVLSIFFLWRELGPSVLAGVGVMVLVIPINAILSTKSKTIQVKNMKNKDKRLKIMNEILSGIKILKYFAWEPSFRDQVQNLRKKELKNLLAFSQLQCVVIFVFQLTPVLVSVVTFSVYVLVDSNNILDAQKAFTSITLFNILRFPLSMLPMMISSMLQASVSTERLEKYLGGDDLDTSAIRHDCNFDKAMQFSEASFTWEHDSEATVRDVNLDIMAGQLVAVIGPVGSGKSSLISAMLGEMENVHGHITIKGTTAYVPQQSWIQNGTIKDNILFGTEFNEKRYQQVLEACALLPDLEMLPGGDLAEIGEKGINLSGGQKQRISLARATYQNLDIYLLDDPLSAVDAHVGKHIFNKVLGPNGLLKGKTRLLVTHSMHFLPQVDEIVVLGNGTIVEKGSYSALLAKKGEFAKNLKTFLRHTGPEEEATVHDGSEEEDDDYGLISSVEEIPEDAASITMRRENSFRRTLSRSSRSNGRHLKSLRNSLKTRNVNSLKEDEELVKGQKLIKKEFIETGKVKFSIYLEYLQAIGLFSIFFIILAFVMNSVAFIGSNLWLSAWTSDSKIFNSTDYPASQRDMRVGVYGALGLAQGIFVFIAHFWSAFGFVHASNILHKQLLNNILRAPMRFFDTTPTGRIVNRFAGDISTVDDTLPQSLRSWITCFLGIISTLVMICMATPVFTIIVIPLGIIYVSVQMFYVSTSRQLRRLDSVTRSPIYSHFSETVSGLPVIRAFEHQQRFLKHNEVRIDTNQKCVFSWITSNRWLAIRLELVGNLTVFFSALMMVIYRDTLSGDTVGFVLSNALNITQTLNWLVRMTSEIETNIVAVERITEYTKVENEAPWVTDKRPPPDWPSKGKIQFNNYQVRYRPELDLVLRGITCDIGSMEKIGVVGRTGAGKSSLTNCLFRILEAAGGQIIIDGVDIASIGLHDLREKLTIIPQDPILFSGSLRMNLDPFNNYSDEEIWKALELAHLKSFVASLQLGLSHEVTEAGGNLSIGQRQLLCLGRALLRKSKILVLDEATAAVDLETDNLIQTTIQNEFAHCTVITIAHRLHTIMDSDKVMVLDNGKIIECGSPEELLQIPGPFYFMAKEAGIENVNSTKF
B2: ATP-binding cassette sub-family C member 2 (Rattus norvegicus) (protein)
chain: MDKFCNSTFWDLSLLESPEADLPLCFEQTVLVWIPLGFLWLLAPWQLYSVYRSRTKRSSITKFYLAKQVFVVFLLILAAIDLSLALTEDTGQATVPPVRYTNPILYLCTWLLVLAVQHSRQWCVRKNSWFLSLFWILSVLCGVFQFQTLIRALLKDSKSNMAYSYLFFVSYGFQIVLLILTAFSGPSDSTQTPSVTASFLSSITFSWYDRTVLKGYKHPLTLEDVWDIDEGFKTRSVTSKFEAAMTKDLQKARQAFQRRLQKSQRKPEATLHGLNKKQSQSQDVLVLEEAKKKSEKTTKDYPKSWLIKSLFKTFHVVILKSFILKLIHDLLVFLNPQLLKLLIGFVKSSNSYVWFGYICAILMFAVTLIQSFCLQSYFQHCFVLGMCVRTTVMSSIYKKALTLSNLARKQYTIGETVNLMSVDSQKLMDATNYMQLVWSSVIQITLSIFFLWRELGPSILAGVGVMVLLIPVNGVLATKIRNIQVQNMKNKDKRLKIMNEILSGIKILKYFAWEPSFQEQVQGIRKKELKNLLRFGQLQSLLIFILQITPILVSVVTFSVYVLVDSANVLNAEKAFTSITLFNILRFPLSMLPMVTSSILQASVSVDRLERYLGGDDLDTSAIRRVSNFDKAVKFSEASFTWDPDLEATIQDVNLDIKPGQLVAVVGTVGSGKSSLVSAMLGEMENVHGHITIQGSTAYVPQQSWIQNGTIKDNILFGSEYNEKKYQQVLKACALLPDLEILPGGDMAEIGEKGINLSGGQKQRVSLARAAYQDADIYILDDPLSAVDAHVGKHIFNKVVGPNGLLAGKTRIFVTHGIHFLPQVDEIVVLGKGTILEKGSYRDLLDKKGVFARNWKTFMKHSGPEGEATVNNDSEAEDDDDGLIPTMEEIPEDAASLAMRRENSLRRTLSRSSRSSSRRGKSLKNSLKIKNVNVLKEKEKEVEGQKLIKKEFVETGKVKFSIYLKYLQAVGWWSILFIILFYGLNNVAFIGSNLWLSAWTSDSDNLNGTNNSSSHRDMRIGVFGALGLAQGICLLISTLWSIYACRNASKALHGQLLTNILRAPMRFFDTTPTGRIVNRFSGDISTVDDLLPQTLRSWMMCFFGIAGTLVMICMATPVFAIIIIPLSILYISVQVFYVATSRQLRRLDSVTKSPIYSHFSETVTGLPIIRAFEHQQRFLAWNEKQIDINQKCVFSWITSNRWLAIRLELVGNLVVFCSALLLVIYRKTLTGDVVGFVLSNALNITQTLNWLVRMTSEAETNIVAVERISEYINVENEAPWVTDKRPPADWPRHGEIQFNNYQVRYRPELDLVLKGITCNIKSGEKVGVVGRTGAGKSSLTNCLFRILESAGGQIIIDGIDVASIGLHDLRERLTIIPQDPILFSGSLRMNLDPFNKYSDEEVWRALELAHLRSFVSGLQLGLLSEVTEGGDNLSIGQRQLLCLGRAVLRKSKILVLDEATAAVDLETDSLIQTTIRKEFSQCTVITIAHRLHTIMDSDKIMVLDNGKIVEYGSPEELLSNRGSFYLMAKEAGIENVNHTEL

Experiments:
Assay type in all cases: functional, cell membranes, HEK293, Membrane vesicle
[1] = substrate: C=CC1=C(C)/C(=C/c2[nH]c(Cc3[nH]c(/C=C4\NC(=O)C(C)=C4C=C)c(C)c3CCC(=O)O[C@@H]3OC(C(=O)O)[C@@H](O)C(O)C3O)c(CCC(=O)O)c2C)NC1=O; assay: (§1) TP_TRANSPORTER: uptake in membrane vesicles from MRP2-expressing HEK cells
[2] = substrate: C=CC1=C(C)/C(=C/c2[nH]c(Cc3[nH]c(/C=C4\NC(=O)C(C)=C4C=C)c(C)c3CCC(=O)O[C@@H]3O[C@@H](C(=O)O)[C@H](O)[C@@H](O)[C@@H]3O)c(CCC(=O)O[C@@H]3O[C@H](C(=O)O)[C@H](O)[C@H](O)[C@@H]3O)c2C)NC1=O; assay: as §1
[3] = substrate: C=CC1=C(C)/C(=C/c2[nH]c(Cc3[nH]c(/C=C4\NC(=O)C(C)=C4C=C)c(C)c3CCC(=O)O[C@@H]3OC(C(=O)O)[C@@H](O)C(O)C3O)c(CCC(=O)O)c2C)NC1=O; assay: (§2) TP_TRANSPORTER: uptake in membrane vesicles from Mrp2-expressing HEK cells
[4] = substrate: C=CC1=C(C)/C(=C/c2[nH]c(Cc3[nH]c(/C=C4\NC(=O)C(C)=C4C=C)c(C)c3CCC(=O)O[C@@H]3O[C@@H](C(=O)O)[C@H](O)[C@@H](O)[C@@H]3O)c(CCC(=O)O[C@@H]3O[C@H](C(=O)O)[C@H](O)[C@H](O)[C@@H]3O)c2C)NC1=O; assay: as §2

Row | Protein | Km [1] | Km [2] | Km [3] | Km [4]
1 | B1 | 0.7 µM | 0.9 µM |  | 
2 | B2 |  |  | 0.8 µM | 0.5 µM
